Assay results reported in US10729745B2, “Use of La1-like peptide isolated from maurus palmatus venom as an activator of sperm motility in mammals” (IMV Technologies, priority 2016, dated 2020).

Tests used:
Format in all cases: cell-based
[1] = tested on: human sperm; assay: Velocity test on human spermatozoa treated with the peptide (computer-assisted motility analysis, CASA)
Excerpt: (§1) Human sperm were obtained from patient consulting at the fertility department of Grenoble, following approval by the ethical committee and informed consent from the patients. All patients gave an informed consent for the conservation of the remnant sperm in the Germetheque biobank and their use in studies on human fertility in accordance with the Helsinki Declaration of 1975 on human experimentation. The Germetheque Scientific Committee approved the present study design. Ejaculate was liquefied at 37° C. for 30 min and sperm were washed twice in Sperm Preparation Medium (Origio, Målov, Denmark) at 500 g for 5 min. Concentration is then adjusted for CASA analysis. Sperm were also frozen with SpermFreeze (Fertipro NV, Beernem, Belgium) for further analysis as frozen sperm.
(§2) After 10 minutes incubation with the peptide according to SEQ ID NO. 1 (natural, or synthesized), the sperm suspension was immediately placed onto an analysis chamber (Leja Products B.V., Netherlands) of 100 μm depth for mouse sperm and 20 μm depth for human, NHP and bovine sperm, and kept at 37° C. for microscopic quantitative study of sperm movement. Sperm motility parameters were measured at 37° C. using a sperm analyzer (Hamilton Thorn Research, Beverley). The settings employed for analysis were as follows for human, NHP, bovine and mouse respectively: acquisition rate (60;60;60;60) Hz; number of frames: (30;20;30;45); minimum contrast: (80;80;80;50); minimum cell size: (3;4;5;5); low static-size gate: (0,85;0,79;0,1;0,3); high static-size gate: (4,24;2,52;3,4;1,95); low static-intensity gate: (0,39;0,62;0,3;0,5); high static-intensity gate: (1,4;1,4;1,7;1,3); minimum elongation gate: (0;2;8;0); maximum elongation gate: (85;50;97;87); magnification factor: (1,89;1,89;1,89;0,7). The motility parameters measured were curvilinear velocity (VCL) and amplitude of lateral head displacement (ALH). A minimum of 100 motile spermatozoa was analyzed for each assay. Motile sperm were defined by VAP>(1;1;1;1) and progressive sperm were defined by VAP>(25;25;50;30) and STR>(80;80;70;70).

[2] = tested on: mouse oocytes and capacitated sperm; assay: Fertilization study in mice (in vitro fertilization, 2-cell embryos scored)
Method: Eggs were collected from mature OF1 females, synchronized with 5 units of pregnant mare serum gonadotrophin (PMSG) and 5 units of human chorionic gonadotrophin (hCG). Sperm were capacitated for 55 minutes in M16 2% BSA (37° C., 5% CO2) and introduced into droplets containing oocytes. The active peptide was introduced into droplets at the same time. Oocytes were incubated with 1.5×10^5 to 5×10^5 capacitated sperm/ml (37° C., 5% CO2) in M16 medium and unbound sperm were washed away after 4 hours incubation. Twenty-four hours after fertilization, the different stages, i.e. unfertilized oocytes (including aborted embryos and corresponding to fragmented oocytes or oocytes blocked after the extrusion of the second polar body) and 2-cell embryos (as an indication of successful fertilization) were scored.

[3] = tested on: testicular sperm from macaca; assay: Motility activation in testicular sperm from Macaca (CASA); conditions: non-human primate testicular sperm, FIGS. 3 and 4
Method: FIG. 3: Measurement of motile cells and progressive cells after incubation of testicular sperm from macaca (non-human primate) with (7.8 Kda peptide) and without (Control) peptide SEQ ID NO. 1. Motile sperm and progressive sperm were characterized by VAP>1 μm/s and VAP>30 μm/s and STR>70%, respectively. STR=VSL/VAP. Statistical analyses were performed with SigmaPlot. t tests were used to compare the effects of La1-like peptide on sperm motility parameters. Data represent mean±SEM. Statistical tests with a 2-tailed P values 0.05 were considered significant. […]
After 10 minutes incubation with the peptide according to SEQ ID NO. 1 (natural, or synthesized), the sperm suspension was immediately placed onto an analysis chamber (Leja Products B.V., Netherlands) of 100 μm depth for mouse sperm and 20 μm depth for human, NHP and bovine sperm, and kept at 37° C. for microscopic quantitative study of sperm movement. Sperm motility parameters were measured at 37° C. using a sperm analyzer (Hamilton Thorn Research, Beverley). […] The motility parameters measured were curvilinear velocity (VCL) and amplitude of lateral head displacement (ALH). A minimum of 100 motile spermatozoa was analyzed for each assay. […]
Macaca testes were collected after euthanasia. […] 1, sperm motility was measured using the same conditions as those in Example 2.

[4] = tested on: human ejaculated sperm; assay: Motility of fresh and frozen human ejaculated sperm incubated with the peptide (Example 5, FIG. 5)
Method: FIG. 5: Measurement of % motile cells and progressive cells after incubation of fresh (left hand panel) and frozen (right hand panel) human ejaculated sperm with (7.8 kDa peptide) or without (Control) the peptide according to SEQ ID NO. 1. Motile sperm and progressive sperm were characterized by VAP>1 μm/s and VAP>30 μm/s and STR>70%, respectively. STR=VSL/VAP. Statistical analyses were performed with SigmaPlot. t tests were used to compare the effects of La1-like peptide on sperm motility parameters. Data represent mean±SEM. Statistical tests with a 2-tailed P values≤0.05 were considered significant.
as §1, §2

[5] = tested on: sperm; assay: Toxicity on sperm (sperm vitality)
Method: Forty μL of sperm were mixed with 20 μL of eosin 1% diluted in NaCl 9/1000 and 20 μL of nigrosine 10% diluted in NaCl 9/1000. Sperm were then layered onto glass slide and dried. A minimum of 100 spermatozoa was analyzed for each assay.

[6] = tested on: sperm; assay: Sperm motility tests by the applicants (comparison with papaverine, duration of effect, synthetic versus venom peptide)
[7] = fresh human sperm samples, FIG. 5 left-hand panel
[8] = frozen human sperm samples, FIG. 5 right-hand panel

B1: La-1-like peptide (peptide)
chain: SGESCKAGKFTVLVGHQQNDKSTCTLYKCLNFKRKYALQISSCADVDLKSGCRQVPGAASANFPECCPMVICK
modifications: S Maurus palmatus
**Q.** With B1 as the molecule, how does the “sperm motility after incubation” value ([1]; human sperm, incubation with peptide, FIG. 2B) read?
**A.** increase in sperm motility

**Q.** And the “increase in lateral amplitude (ALH)” value ([1]; initial lateral amplitude of less than 3.5 μm versus higher initial ALH values)?
**A.** greater increases

**Q.** And the “increase in motility (VAP)” value ([1]; sperm having an initial VAP of 60 μm/s)?
**A.** about 20%

**Q.** What about the “increase in path velocity (VAP)” value ([1]; sperm having low initial path velocity (VAP)) of the same molecule?
**A.** up to 80%

**Q.** What about the “motility activation with respect to initial track speed (VCL)” value ([1]; sperm with low initial track speed compared to higher initial track speeds, FIG. 2B upper left panel) of the same molecule?
**A.** higher motility activation

**Q.** And the toxicity [2]?
**A.** not toxic

**Q.** And the “increase of rate of fertilization compared to the control” value ([2]; number of embryos at the two cell stage)?
**A.** approximately 20%

**Q.** And the embryo development ([2]; two cell stage)?
**A.** does not prevent embryo development

**Q.** What about the “non-progressive velocity of sperm cells” value [3] of the same molecule?
**A.** increase

**Q.** What about the “progressive velocity of sperm cells” value [3] of the same molecule?
**A.** increase

**Q.** What about the non-progressive motility [4, 7] of the same molecule?
**A.** increases

**Q.** And the progressive motility [4, 7]?
**A.** increases

**Q.** And the non-progressive motility [4, 8]?
**A.** increases

**Q.** What about the progressive motility [4, 8] of the same molecule?
**A.** increases

**Q.** And the “effect on motility, frozen samples versus fresh samples” value ([4]; human sperm)?
**A.** greater for the frozen samples

**Q.** And the toxicity on sperm [5]?
**A.** no toxicity

**Q.** What about the “duration of effect on sperm motility” value [6] of the same molecule?
**A.** long lasting effect

**Q.** What about the comparison with papaverine ([6]; compared to papaverine) of the same molecule?
**A.** superiority

**Q.** What about the “biological activity of synthesized peptide versus peptide isolated from venom” value ([6]; peptide synthesized using Native Chemical Ligation Strategy) of the same molecule?
**A.** retains the biological activity
